Experimental data taken from patent US20190202925A1.

B1: SBT-004 (antibody, V domains shown)
VH: EVQLQQSGPEVGRPGSSVKISCKASGYTFTDYIMHWVKQSPGQGLEWIGWVDPEYGSTDYAEKFKKKATLTADTSSNTAYIQLSSLTSEDTATYFCARDDGSYSPFDYWGQGVMVTVSS
VL: DIQMTQSPPSLSASLGDKVTITCQASQNINKYIAWYQQKPGKAPRLLIRYTSTLESGTPSRFSGSGSGRDYSFSISNVESEDIASYYCLQYVNLLTFGAGTKLEIK
B2: chimeric SBT-004 Fc null (antibody, part only; not given: light chain and Fc null constant region, V domains shown, part only)
VH: B1 VH

Legend:
[1] = molecular target: human TNFR2 on cells (human) (UniProt P20333); experiment: cell-based or functional assay
[2] = molecular target: monomeric human TNFR2 extracellular domain (human) (UniProt P20333); experiment: BLI (Octet Red 96), Human TNFR2 Kd (1-1)
monomeric human TNFR2 extracellular domain (human), sequence (P20333 23-257): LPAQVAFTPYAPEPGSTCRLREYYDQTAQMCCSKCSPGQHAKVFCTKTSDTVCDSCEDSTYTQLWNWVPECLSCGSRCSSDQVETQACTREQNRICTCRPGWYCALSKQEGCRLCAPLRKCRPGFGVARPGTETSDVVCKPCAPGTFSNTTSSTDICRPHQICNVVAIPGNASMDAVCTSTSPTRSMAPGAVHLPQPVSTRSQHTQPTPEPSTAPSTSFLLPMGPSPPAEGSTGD

human TNFR2 on cells (human), sequence (P20333 23-461): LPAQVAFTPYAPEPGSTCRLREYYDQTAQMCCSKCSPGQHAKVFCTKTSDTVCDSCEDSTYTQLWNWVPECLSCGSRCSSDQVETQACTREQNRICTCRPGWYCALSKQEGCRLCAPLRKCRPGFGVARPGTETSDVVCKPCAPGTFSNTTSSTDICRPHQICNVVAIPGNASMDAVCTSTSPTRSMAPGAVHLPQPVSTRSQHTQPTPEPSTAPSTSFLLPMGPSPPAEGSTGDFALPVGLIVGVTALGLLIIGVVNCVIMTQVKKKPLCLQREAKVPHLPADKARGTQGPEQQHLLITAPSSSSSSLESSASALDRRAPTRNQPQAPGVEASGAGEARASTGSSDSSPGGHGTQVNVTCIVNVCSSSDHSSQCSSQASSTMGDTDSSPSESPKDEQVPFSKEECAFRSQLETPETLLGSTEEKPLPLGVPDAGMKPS

Binder | IC50 (µg/mL) (with pre-incubation); rescue of Jurkat H6 cells from 2 ng/mL TNFα, luminescence [1] | IC50 (µg/mL) (without pre-incubation); rescue of Jurkat H6 cells from 2 ng/mL TNFα, luminescence [1] | Kd [2] [nM]
B1 | 0.09 | 0.1 | 
B2 |  |  | 5
